Measured values: patent US20250027068

Target: pooled human IgG (human IgG1,2,3 and 4)

B1: PRT-524 (protein)
chain: MITSVWTKGVTPPTDFRKIVDGNIAYYHAPYKAGQGWYDITKAFDGGDNLLCGAATAGNMLHWWFDQNKEEIEAYLKKHPEKQKIIFNNQELFDLKAVINTKDSQTNSALFNYFKDKAFPNLSARRLGVFPDLVLDMFINGYYLNVYKTQTTDVNRTYQTKDRRGGIFDAVFTRGVQSKLLTERHDLKNKTLKEISDLIKQELTEGKALGLSHTYANVRINHVINLWGADFDSNGNLEAIYVTDSDTNASIGMKKYFVGVNSAGKVAISAKEIKEDNIGAQVLGLFTLSTGQDIWNQTNLEHHHHHH
Enzyme Activity Endpoint Assay (purified): Fab′2: 474 ng/µL
Enzyme Activity Endpoint Assay (purified): Fc: 285 ng/µL
Enzyme Activity Endpoint Assay (purified): IgG: 676 ng/µL
Enzyme Activity Endpoint Assay (purified): scIgG: 0 ng/µL

B2: PRT-617 (protein)
chain: MQITSVWTKGVTPLTPEQFRYNNEDVIHAPYLPHQGWYDITKAFDGGDNLLCGAATAGNMLHWWFDQNKTEIEAYLSKYPEKQKIIFNNQELFDLRAAINSKDSQTNSQLFNYFRDKAFPNLSARQLGVMPDLVLDMFINGYYLNVFKTQSTDVNRPYQDPDKRGGIFDDVFKEGDQTTLLTARHDLKNGGLNDISTIIKQELQSGRALALSHTYANVSISHVINLWGADFNAEGNLEAIYVTDSDANQSIGMKKYKVGINAHGHVAISAKKIEGENIGAQVLGLFTLSSGKEIWQKLSLEHHHHHH
Enzyme activity endpoint: Fab′2: 630 ng/µL
Enzyme activity endpoint: Fc: 34 ng/µL
Enzyme activity endpoint: IgG: 798 ng/µL
Enzyme activity endpoint: scIgG: 25 ng/µL

B3: PRT-488 (protein)
chain: MVTSVWTKGVTPPTDFRKIVDGNIAYYHAPYKAGQGWYDITKAFDGGDNLLCGAATAGNMLHWWFDQNKDQIERYLKEHPEKQKIIFNNQELFDLKAAIDTKDSQTNSELFNYFKEKAFPYLSTKHLGVFPDHVLDMFINGYRLSLTNHGPTPVKEGSKDKRGGIFDAVFTRGVQSKLLTSRHDLKNKTLKEISDLIKQELTEGKALGLSHTYANVRINHVINLWGADFDSEGNLKAIYVTDSDTNASIGMKKYFVGVNSAGKVAISAKEIKEDNIGAQVLGLFTLSTGQDIWNQTNLEHHHHHH
Enzyme Activity Endpoint Assay (purified): Fab′2: 134 ng/µL
Enzyme Activity Endpoint Assay (purified): Fc: 246 ng/µL
Enzyme Activity Endpoint Assay (purified): IgG: 216 ng/µL
Enzyme Activity Endpoint Assay (purified): scIgG: 803 ng/µL

B4: PRT-683 (protein)
chain: MQITSVWTKGVTPLTPEQFRYNNEDVIHAPYLAHQGWYDITKAFNGKDNLLCGAATAGNMLHWWFDQNKEEIEAYLKKHPEKQKIIFNNQELFDLRKAINTKDSQTNSQLFNYFRDKAFPNLSARQLGVMPDLVLDMFINGYYLNVFKTQSTDVNRPYQDKDKRGGIFDHVFTRGDQTTLLTARHDLKNKTLNDISQIIKQELQEGKALALSHTYANVSISHVINLWGADFNAEGNLEAIYVTDSDANASIGMKKYFVGKNAHGHVAISAKKIEGENIGAQVLGLFTLSSGKEIWQKLSLEHHHHHH
Enzyme activity endpoint: Fab′2: 1100 ng/µL
Enzyme activity endpoint: Fc: 570 ng/µL
Enzyme activity endpoint: IgG: 0 ng/µL
Enzyme activity endpoint: scIgG: 0 ng/µL

B5: PRT-673 (protein)
chain: MQITSVWTKGVTPPTPEQFRYYNEDVLHAPYKPHQGWYDITKTFNGKDNLLCGAATAGNMLHWWFDQNKTQIEAYLKKYPEKQKIIFNNQKMFDLRKAINTKDSQTNSALFSYFKDKAFPNLSARQRGVMPDLVLDMFINGYYLNVGKTQSTDVNRPYQTRDKRGGIFDHVFGRGDQTKLLTARHDLKNKTLNEISQLIKQELSEGKALALSHTYANVSISHVINLWGADFNAEGNLEAIYVTDSDSDAKIGMKKYYVGKNASGKVAISAKKIEGENIGAQVLGLYTLSTGKDIWQKLSLEHHHHHH
Enzyme activity endpoint: Fab′2: 34 ng/µL
Enzyme activity endpoint: Fc: 252 ng/µL
Enzyme activity endpoint: IgG: 601 ng/µL
Enzyme activity endpoint: scIgG: 989 ng/µL

B6: PRT-499 (protein)
chain: MVTSVWTKGVTPPADFRKIVDGNIAYYHAPYVANQGWYDITKTFNGKDDLLCGAATAGNMLHWWFDQNKEYIEAYLKKHPEKQKIMFGDQELLDVRKAINTKGSQKNSELFNYFRDKAFPNLSARRLGVMPDLVLDMFINGYYLNVTKTQTTDVNRTYQEKDKRGGIFDAVFTRGDQSKLLTSRHDLKNKGLKEISDLIKQELTEGKALGLSHTYANVRINHVINLWGADFDSDGNLKAIYVTDSDSNASIGMKKYFVGVNSAGKVAISAKEIKEDNIGAQVLGLFTLSTGQDIWNQTNLEHHHHHH
Enzyme Activity Endpoint Assay (purified): Fab′2: 637 ng/µL
Enzyme Activity Endpoint Assay (purified): Fc: 365 ng/µL
Enzyme Activity Endpoint Assay (purified): IgG: 436 ng/µL
Enzyme Activity Endpoint Assay (purified): scIgG: 45 ng/µL

B7: PRT-507 (protein)
chain: MITSVWTKGVTPPTDFIKGEDVFHAPYKAGQGWYDITKAFDGGDDLLCGAATAGNMLHWWFDQNKEEIEAYLKKHPEKQKIMFGDQELLDVRKVINTKDSQTNSALFNYFKDKAFPNLSARRLGVMPDLVLDMFINGYYLNVYKTQTTDVNRTYQTKDRRGGIFDAVFTRGDQSKLLTERHDFKEKTLKEISDLIKQELTEGKALGLSHTYANVRINHVINLWGADFDSNGNLEAIYVTDSDSNASIGMKKYFVGVNSAGKVAISAKEIKEDNIGAQVLGLFTLSTGQDIWNQTNLEHHHHHH
Enzyme Activity Endpoint Assay (purified): Fab′2: 927 ng/µL
Enzyme Activity Endpoint Assay (purified): Fc: 355 ng/µL
Enzyme Activity Endpoint Assay (purified): IgG: 112 ng/µL
Enzyme Activity Endpoint Assay (purified): scIgG: 0 ng/µL

B8: PRT-505 (protein)
chain: MVTSVWTKGVTPPTDFIKGEDVFHAPYKAGQGWYDITKAFDGGDDLLCGAATAGNMLHWWFDQNKEYIEAYLKKHPEKQKIMFGDQELLDVRKAINTKGSQKNSELFNYFRDKAFPNLSARRLGVMPDLVLDMFINGYYLNVTKTQTTDVNRQEQEKDKRGGIFDAVFGRGDQTKLLTSRHDLKNKGLKEISDLIKQELTEGKALGLSHTYANVRINHVINLWGADFDSDGNLKAIYVTDSDSNASIGMKKYFVGVNSAGKVAISAKEIKEDNIGAQVLGLFTLSTGQKIWNKTNLEHHHHHH
Enzyme Activity Endpoint Assay (purified): Fab′2: 37 ng/µL
Enzyme Activity Endpoint Assay (purified): Fc: 148 ng/µL
Enzyme Activity Endpoint Assay (purified): IgG: 609 ng/µL
Enzyme Activity Endpoint Assay (purified): scIgG: 752 ng/µL

B9: PRT-689 (protein)
chain: MQITSVWTKGVTPLTMDQFTNNNEDVIHAPYKPGQGWYDITKTFDGKDNLLCGAATAGNMLHWWFDQNKEEIENYLKKHPEKQKIIFNNQKLFDLRKAINTKDSQTNSALFNYFRDKAFPNLSARQLGVMPDLVLDMFINGYYLNVFKTQSTDVNREYQTKDKRGGIFDDVFGRGDQTTLLTARHDLKNGGLNDISQIIKQELSSGKALALSHTYANVSISHVINLWGADFNEEGNLEAIYVTDSDANASIGMKKYYVGKNAHGKVAISAKKIEGENIGAQVLGLFTLSSGKEIWQKLSLEHHHHHH
Enzyme Activity Endpoint Assay (purified): Fab′2: 335 ng/µL
Enzyme Activity Endpoint Assay (purified): Fc: 248 ng/µL
Enzyme Activity Endpoint Assay (purified): IgG: 376 ng/µL
Enzyme Activity Endpoint Assay (purified): scIgG: 174 ng/µL

B10: PRT-675 (protein)
chain: MQITSVWTKGVTPPTMDDFTINGEDVFHAPYVANQGWYDITKTFNGKDDLLCGAATAGNMLHWWFDQNKEQIERYLKKHPEKQKIIFNNQEMFDLKEAINTKDSQTDSKLFNYFRDKAFPNLSARQLGVMPDHVLDMFINGYYLNLTKTQSTDVNRPEDTKDLRGGIFDHVFTRGDQSKLLTARHDLKNKTLKEISDLIKQELTEGKALGLSHTYANVRISHVINLWGADFDAEGNLEAIYVTDSDSNASIGMKKYYVGVNSAGKVAISAKKIEGDNIGAQVLGLYTLSTGKDIWQKLSLEHHHHHH
Enzyme activity endpoint: Fab′2: 448 ng/µL
Enzyme activity endpoint: Fc: 400 ng/µL
Enzyme activity endpoint: IgG: 229 ng/µL
Enzyme activity endpoint: scIgG: 456 ng/µL
